Experiments:
[1] = target: MVM capsid protein VP2 (stably expressed in human fibroblasts, HF-VPs) (Minute Virus of Mice, prototype strain (MVMp)); test: cross-linking; clarified cell homogenates in HNEM buffer (50 mM Hepes pH 8.0, 150 mM NaCl, 2 mM MgCl2, 1 mM EDTA) cross-linked with 10 mM dimethyl suberimidate (DMS), 10 min at 20°C; 5% SDS-PAGE and Western blot with the α-VPs antibody; MF-VPs quiescent by serum starvation (G0) or 8 h after serum addition (S); HF-VPs at hours after release of density arrest (G1)
[2] = target: MVM capsid protein VP2 (stably expressed in mouse fibroblasts, MF-VPs) (Minute Virus of Mice, prototype strain (MVMp)); test: as above

Row | Substance | stoichiometry N [1] | stoichiometry N [2]
1 | MVM capsid protein VP2 (stably expressed in human fibroblasts, HF-VPs) (natural protein) | 3 | 
2 | MVM capsid protein VP2 (stably expressed in mouse fibroblasts, MF-VPs) (natural protein) |  | 3
